Test results taken from patent US20170052184A1 (published 2017).
Substitutions are numbered along the chain they refer to.

Assays:
HCV Core1-169 [1] = biological target: T1, HCV Core1-169 (hepatitis C virus (HCV-1), UniProt P26664 1-169); test: SPR sandwich, capture mAb C11-3
T1 sequence: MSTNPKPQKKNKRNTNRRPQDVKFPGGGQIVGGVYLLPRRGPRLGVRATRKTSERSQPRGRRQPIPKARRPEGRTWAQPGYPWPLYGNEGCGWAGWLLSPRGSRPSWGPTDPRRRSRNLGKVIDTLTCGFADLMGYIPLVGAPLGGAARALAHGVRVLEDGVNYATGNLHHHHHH

HCV Core1-169 [2] = biological target: T1, HCV Core1-169; test: SPR sandwich, capture mAb C11-7
HCV Core1-169 [3] = biological target: T1, HCV Core1-169; test: SPR sandwich, capture mAb C11-9
HCV Core1-169 [4] = biological target: T1, HCV Core1-169; test: SPR sandwich, capture mAb C11-14
[5] = biological target: T2, HCV Core 134-171-TT Peptide (hepatitis C virus (HCV-1 numbering) …); test: SPR, captured mAb, peptide analyte
T2 construct: also called ALRZ-9 peptide

B1: HCV 208A-1064 (antibody, V domains shown)
VH: EVQLQQSGPELVKPGASVKISCKTSGYTFTEYAMHWMKQSHGKSLEWIGGINPTNGDTIYNQKFKDKAKLTVDRSSSTAYMELRSLTSDDSALFYCARRELDYFASWGQGTTLTVSS
VL: DIVLTQSPASLIVSLGQTATISCRASQSVSTSRFSYLHWIQQKPGQPPKLLIKYASNLESGVPVRFSGSGSGTDFTLNIHPVEEEDTATYFCQHSWEFPFTFGSGTKLKIKR
expected percent binding (HCV Core1-169 [1]): 16.3% | expected percent binding (HCV Core1-169 [2]): 19.6% | expected percent binding (HCV Core1-169 [3]): 10.5% | expected percent binding (HCV Core1-169 [4]): 16.3% | Kd [5]: 0.21 nM | koff [5]: 0.00034 s⁻¹ | kon [5]: 1.6e+06 M⁻¹ s⁻¹

B2: HCV 208A-293 (antibody, V domains shown)
VH: B1 VH with T24A, Y27F, T58A, A105P
VL: B1 VL with T18R, L37V, T76I, K109E
expected percent binding (HCV Core1-169 [1]): 17.9% | expected percent binding (HCV Core1-169 [2]): 20.9% | expected percent binding (HCV Core1-169 [3]): 11% | expected percent binding (HCV Core1-169 [4]): 16.4% | Kd [5]: 0.11 nM | koff [5]: 0.00023 s⁻¹ | kon [5]: 2.1e+06 M⁻¹ s⁻¹

B3: HCV 208B-1094 (antibody, V domains shown)
VH: B1 VH with K63R
VL: B1 VL with V29L, L37V
expected percent binding (HCV Core1-169 [1]): 24.4% | expected percent binding (HCV Core1-169 [2]): 28.4% | expected percent binding (HCV Core1-169 [3]): 19.8% | expected percent binding (HCV Core1-169 [4]): 27.8% | Kd [5]: 0.16 nM | koff [5]: 0.00025 s⁻¹ | kon [5]: 1.5e+06 M⁻¹ s⁻¹

B4: HCV 208A-920 (antibody, V domains shown)
VH: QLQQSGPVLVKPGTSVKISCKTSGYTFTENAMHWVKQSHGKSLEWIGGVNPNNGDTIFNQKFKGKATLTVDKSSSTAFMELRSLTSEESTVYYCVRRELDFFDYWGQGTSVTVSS
VL: B1 VL with I12A, T18R, F34Y, L37M, I40Y, V64A, E83A, T89A, F91Y, K109E
expected percent binding (HCV Core1-169 [1]): 19.3% | expected percent binding (HCV Core1-169 [2]): 22.9% | expected percent binding (HCV Core1-169 [3]): 13.2% | expected percent binding (HCV Core1-169 [4]): 19.1% | Kd [5]: 0.39 nM | koff [5]: 0.00056 s⁻¹ | kon [5]: 1.5e+06 M⁻¹ s⁻¹

B5: HCV 208A-110 (antibody, V domains shown)
VH: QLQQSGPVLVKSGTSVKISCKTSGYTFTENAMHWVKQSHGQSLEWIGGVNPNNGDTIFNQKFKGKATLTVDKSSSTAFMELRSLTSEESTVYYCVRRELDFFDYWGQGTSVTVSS
VL: B1 VL with I12A, T18R, F34Y, L37M, I40Y, V64A, E83A, T89A, F91Y, K109E
expected percent binding (HCV Core1-169 [1]): 15.7% | expected percent binding (HCV Core1-169 [2]): 21.1% | expected percent binding (HCV Core1-169 [3]): 9.4% | expected percent binding (HCV Core1-169 [4]): 14.8% | Kd [5]: 0.33 nM | koff [5]: 0.00055 s⁻¹ | kon [5]: 1.7e+06 M⁻¹ s⁻¹

B6: HCV 208A-133 (antibody, V domains shown)
VH: QLQQSGPVLVGPGASVMISCKTSGYTFTENAMHWVEQSHGKSLEWIGGVNPNNGDTIFNQKFKGKATLTVDKSSSTAFMEFRSLTSEESTVYYCVRRELDFFDYWGQGTSVTVSS
VL: B1 VL with I12A, T18R, F34Y, L37M, I40Y, V64A, E83A, F91Y, K109E
expected percent binding (HCV Core1-169 [1]): 9.8% | expected percent binding (HCV Core1-169 [2]): 13.9% | expected percent binding (HCV Core1-169 [3]): 5.8% | expected percent binding (HCV Core1-169 [4]): 9.3% | Kd [5]: 0.41 nM | koff [5]: 0.0005 s⁻¹ | kon [5]: 1.2e+06 M⁻¹ s⁻¹

B7: HCV 208A-159 (antibody, V domains shown)
VH: B6 VH with V8A, L9Q, G11K, E36K, G64D, T67A, F81L
VL: DIVLTQSPASLAVSLGQRATISCRASQSVSTSRYSYVHWYQQKPGQPPKLLIKYAANLESGVPARFSGSGSGTDFTLNIHPVAEEDAAAYYCQHSWEFPFTFGSGTKLEIKR
expected percent binding (HCV Core1-169 [1]): 4.6% | expected percent binding (HCV Core1-169 [2]): 7% | expected percent binding (HCV Core1-169 [3]): 3.3% | expected percent binding (HCV Core1-169 [4]): 5.5% | Kd [5]: 0.45 nM | koff [5]: 0.00065 s⁻¹ | kon [5]: 1.4e+06 M⁻¹ s⁻¹

B8: HCV 208A-334 (antibody, V domains shown)
VH: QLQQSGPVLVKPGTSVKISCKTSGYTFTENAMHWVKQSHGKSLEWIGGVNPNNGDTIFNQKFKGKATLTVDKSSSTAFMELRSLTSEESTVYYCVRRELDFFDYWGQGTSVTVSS
VL: B7 VL with V37M, A56S, A87T, E97G
expected percent binding (HCV Core1-169 [1]): 17.2% | expected percent binding (HCV Core1-169 [2]): 20.6% | expected percent binding (HCV Core1-169 [3]): 10.3% | expected percent binding (HCV Core1-169 [4]): 15.9% | Kd [5]: 0.34 nM | koff [5]: 0.00057 s⁻¹ | kon [5]: 1.7e+06 M⁻¹ s⁻¹

B9: HCV 208A-741 (antibody, V domains shown)
VH: B6 VH with G11K, E36K, F81L
VL: B7 VL with A19T, R24G, Y34F, V37M, A56S, A87T
expected percent binding (HCV Core1-169 [1]): 19.4% | expected percent binding (HCV Core1-169 [2]): 22.7% | expected percent binding (HCV Core1-169 [3]): 14.2% | expected percent binding (HCV Core1-169 [4]): 21.2% | Kd [5]: 0.41 nM | koff [5]: 0.00069 s⁻¹ | kon [5]: 1.7e+06 M⁻¹ s⁻¹

B10: HCV 208B-251 (antibody, V domains shown)
VH: B6 VH with G11K, M17K, E36K, F58Y, F81L, T90P, Y93F
VL: B7 VL with Q17K, R18K, V37M, Q46H, A56S, A87T
expected percent binding (HCV Core1-169 [1]): 16.6% | expected percent binding (HCV Core1-169 [2]): 20.1% | expected percent binding (HCV Core1-169 [3]): 12.3% | expected percent binding (HCV Core1-169 [4]): 18.2% | Kd [5]: 0.58 nM | koff [5]: 0.00065 s⁻¹ | kon [5]: 1.1e+06 M⁻¹ s⁻¹

B11: HCV 208B-178 (antibody, V domains shown)
VH: DVKLVESGGGLVKLGGSLKLSCAASGFTFSSYYMSWVRQTPEKRLELVAAINSNGGSTYYPDTVKGRFTISRDNAKNTLYLQMSSLKSEDTALYYCARHGGLGRRDWYFDVWGAGTTVTVSS
VL: DIVLTQSPASLAVSLGQRATISCRASESVDNYGISFMHWYQQKPGQPPKLLIYRASNLESGIPARFSGSGSRTDFTLTINPVETDDVATYYCQQSNKDPFTFGSGAKLEIKR
expected percent binding (HCV Core1-169 [1]): ≤ 1% | expected percent binding (HCV Core1-169 [2]): 1.7% | expected percent binding (HCV Core1-169 [3]): ≤ 1% | expected percent binding (HCV Core1-169 [4]): ≤ 1%

B12: HCV 208B-327 (antibody, V domains shown)
VH: EVQLVESGGGLVKPGGSLKLSCAASGFTFSDSYMYWVRQTPDQRLEWVATISDGGSYTFYPDSVKGRFTISRDNAQNNLYLQMSSLKSEDTAMYYCASPHAGYFGWFAYWGRGTLVTVSA
VL: DIVMTQAAFSNPVTPGTSVSISCRSSKSLLHSNGITYLYWYLQKPGQSPQLLIYQMSKIASGVPDRFRSSGSGTDFTLRISRVEAADVGVYYCAQNLELPWTFGGGTKLEIKR
expected percent binding (HCV Core1-169 [1]): ≤ 1% | expected percent binding (HCV Core1-169 [2]): ≤ 1% | expected percent binding (HCV Core1-169 [3]): ≤ 1% | expected percent binding (HCV Core1-169 [4]): ≤ 1%

B13: HCV 208B-408 (antibody, V domains shown)
VH: EVKLVESGGGLVQPGGSLRLSCASSGFTFTDYYMSWVRQPPGKALEWLGFIRNKAYGYTTEFSASVNGRFTISRDDSQSVPYLQMNTLRAEDSATYYCARVLYYDYGGFAYWGQGTLVTVST
VL: DIQMTQSPASLSASVGETVTITCRASGNIHTYLAWYQQKQGKSPQLLVYNANTLADGVPSRFSGSGSGTQFSLKINSLQPDDFGSYYCQHFWSAPWTFGGGTQLEIKR
expected percent binding (HCV Core1-169 [1]): ≤ 1% | expected percent binding (HCV Core1-169 [2]): ≤ 1% | expected percent binding (HCV Core1-169 [3]): ≤ 1% | expected percent binding (HCV Core1-169 [4]): ≤ 1%

B14: HCV 208B-515 (antibody, V domains shown)
VH: QVQLQQPGAELVKPGASLKLSCRASGYTFTSYWIHWVKQRPGQGLEWIGEIDPSDSYTNYNQKFKGKATLTVDKSSRAAYMQLSSLTSEDSAVYYCARHYYGVFDSWGQGTKLTVSS
VL: QIVFTQYPAIMSASLGERVTMTCTASSSVTSSYLHWFQQKPGSSPKLWIYSTSNPGSGVPARFSGRGSGTSYSLSISSMEAEDAATYYCLQFHRSPWTFGGGTKLEIRR
expected percent binding (HCV Core1-169 [1]): ≤ 1% | expected percent binding (HCV Core1-169 [2]): ≤ 1% | expected percent binding (HCV Core1-169 [3]): ≤ 1% | expected percent binding (HCV Core1-169 [4]): ≤ 1%

B15: HCV 208B-517 (antibody, V domains shown)
VH: QVQLKQSGPGLVQPSQSLSITCTVSGFSLITHGVHWVRQSPGKGLEWLGVIWSGGSTDYNAAFISRLSISKDTSKSQVFLKMSSLQADDTAIYYCARNGGATAFDYWGQGTTLTVSS
VL: DIVMTQSPATLSVTPGDRVSLSCRASQSISDYLHWYQQKSHESPRLLIKYASQSISGIPSRFRGSGSGSHFTLSINSVEPEDVGVYYCQNGHSFPWTFGGGTKLEIKR
expected percent binding (HCV Core1-169 [1]): ≤ 1% | expected percent binding (HCV Core1-169 [2]): ≤ 1% | expected percent binding (HCV Core1-169 [3]): ≤ 1% | expected percent binding (HCV Core1-169 [4]): ≤ 1%

B16: HCV 208B-793 (antibody, V domains shown)
VH: EVKLVESGGGLVQPGGSLKLSCAASGFTFSSYAMSWVRQTPERRLEWVTYISNGGGSTYYSDTVKGRFTFSRDNAKNTLYLQMSSLKSEDTAMYYCARHGLGRTGFASWGQGTLVTVSA
VL: DIVMTQSHKFMSTSVGDRVSITCKASQDVGTAVAWYQQKPGQSPKLLIYWASTRHTGVPDRFTGSGSGTDFTLTISNVQSEDLADYFCQQYSNYLTFGAGTKLEVKR
expected percent binding (HCV Core1-169 [1]): ≤ 1% | expected percent binding (HCV Core1-169 [2]): ≤ 1% | expected percent binding (HCV Core1-169 [3]): ≤ 1% | expected percent binding (HCV Core1-169 [4]): ≤ 1%

B17: HCV 208B-822 (antibody, V domains shown)
VH: QVQLKQSGPGLVQPSQSLSITCTVSGFSLITYGVHWVRQSPGKGLEWLGVIWGGGSTGYNAAFVSRLNITKDNSKSQVFFKMNSLQPDDTAIYYCARNGGATVFDYWGQGTTLTVSS
VL: B15 VL with S28T, R63S
expected percent binding (HCV Core1-169 [1]): ≤ 1% | expected percent binding (HCV Core1-169 [2]): ≤ 1% | expected percent binding (HCV Core1-169 [3]): ≤ 1% | expected percent binding (HCV Core1-169 [4]): ≤ 1%

B18: HCV 208B-826 (antibody, V domains shown)
VH: DVQLVESGGGLVQAGGSRKLSCAASGFPFSSFGMHWVRQAPEKGLEWVASISSRTSKIYYADNLKGRFTISRDNPKNTLFLQMTSLGSEDTAMYYCVRSVFGNSYWFFDVWGAGTTVTVSS
VL: DIVLTQSPATLSVTPGDRVSLSCRASQRIYNYLHWYQQKSHESPRLLTKYASQSISGIPSRFSGSGSGTDFILTINSVETEDFGMYFCQQSNSWPLTFGAGTKLELRR
expected percent binding (HCV Core1-169 [1]): ≤ 1% | expected percent binding (HCV Core1-169 [2]): ≤ 1% | expected percent binding (HCV Core1-169 [3]): ≤ 1% | expected percent binding (HCV Core1-169 [4]): ≤ 1%

B19: HCV 208B-911 (antibody, V domains shown)
VH: QVHLQQPGAELVRPGVSVKLSCKASGYTFTTYSINWMKQRPGQGLEWIGNIYPSTSHTNYNQKFRDKATMTVDKSSSTAYMQLSSPTSEDSAVYYCTINAYSMDYWGQGTSVTVSS
VL: QIVLTQSPEIMSASPGEKVTITCSASSSVSFMYWFQQKPGTSPKLWIYITSNLASGVPTRFSGSGSGTSYSLTISRMEAEDAATYYCQQRSSFPYTFGGGTKLEMKR
expected percent binding (HCV Core1-169 [1]): ≤ 1% | expected percent binding (HCV Core1-169 [2]): ≤ 1% | expected percent binding (HCV Core1-169 [3]): ≤ 1% | expected percent binding (HCV Core1-169 [4]): ≤ 1%
